Here are results for five molecules from patent US20070105779A1, “Isolated, ssx-2 and ssx-2 related peptides useful as hla binders and ctl epitopes, and uses thereof” (priority 2002, published 2007).

The first experiment concerns the target HLA-A2. As to the kind of experiment: functional competition vs tyrosinase 368-376 on T2 cells, readout lysis by CTL LAU 156/34; 50% inhibition.
A word on the IC50: it is the concentration at which inhibition is half-maximal. Read a high IC50 as weaker potency. For the molecule AAAPKIFYA (modifications not checked) [… (SEQ ID NO: 1)], the half-inhibitory concentration (IC50) amounted to 20 nM.
In turn, AAAPAIFYA (modifications not checked) [… (SEQ ID NO: 4)] returned a concentration for half-maximal inhibition (IC50) of 22 nM.
Same read-out and setting: the same measure for AAAPKAFYA (modifications not checked) [… (SEQ ID NO: 5)]: 200 nM.
Same read-out and setting: for AAGPKIFYA (modifications not checked) [… (SEQ ID NO: 2)] the value was 286 nM.
Consider AAAAKIFYA (modifications not checked) [… (SEQ ID NO: 3)], for which the IC50 stood at 133 nM. This IC50 is about 2.2-fold lower than that of the molecule before.

The target of the next experiment is HLA-A2. As to the kind of experiment: functional competition vs tyrosinase 368-376 on T2 cells; relative to SEQ ID NO: 17.
Take AAAPKIFYA (modifications not checked) [… (SEQ ID NO: 1)]: the Relative binding came out at 10.
AAAPAIFYA (modifications not checked) [… (SEQ ID NO: 4)] had a Relative binding of 9.
As for AAAPKAFYA (modifications not checked) [… (SEQ ID NO: 5)], the Relative binding came to 1.
The molecule AAGPKIFYA (modifications not checked) [… (SEQ ID NO: 2)] returned a Relative binding of 0.7.
In turn, AAAAKIFYA (modifications not checked) [… (SEQ ID NO: 3)] returned a Relative binding of 1.5.

Another experiment deals with HLA-A2. As to the kind of experiment: functional competition vs tyrosinase 368-376 on T2 cells, readout lysis by CTL LAU 156/34; relative to SEQ ID NO: 1.
AAAPKIFYA (modifications not checked) [… (SEQ ID NO: 1)] came in with a Relative binding of 1.
Same read-out and setting: for AAAPAIFYA (modifications not checked) [… (SEQ ID NO: 4)] the value was 0.9; for AAAPKAFYA (modifications not checked) [… (SEQ ID NO: 5)], 0.1.
On the same count and under the same terms, the same measure for AAGPKIFYA (modifications not checked) [… (SEQ ID NO: 2)]: 0.07.
AAAAKIFYA (modifications not checked) [… (SEQ ID NO: 3)]: the Relative binding was 0.16.
